Source: paper PMC8267615

What was measured:
[1] = molecular target: TREM-1 expressed on the monocyte cell membrane (human (endogenous in monocytes)) (UniProt Q9NP99)
[2] = molecular target: TREM-1 expressed on the monocyte cell membrane (human (endogenous in monocytes)) (UniProt Q9NP99); remark: listed apart in the source

Sequence of TREM-1 expressed on the monocyte cell membrane (human (endogenous in monocytes)) (Q9NP99 21-234): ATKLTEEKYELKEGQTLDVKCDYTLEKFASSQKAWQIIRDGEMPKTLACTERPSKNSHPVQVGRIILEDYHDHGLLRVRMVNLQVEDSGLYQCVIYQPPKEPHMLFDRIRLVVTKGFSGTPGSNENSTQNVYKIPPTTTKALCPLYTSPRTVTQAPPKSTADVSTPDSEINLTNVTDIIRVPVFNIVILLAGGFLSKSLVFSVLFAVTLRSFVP

## recombinant human Hsp70 (major heat shock protein 70) (from UniProt P0DMV8 1-641) (natural protein)
[1]
  cytotoxicity against target cells of lymphocytes activated in PBMCs by six-day treatment with rising Hsp70 concentration (half maximal effective concentration): 0.5 nM
  inhibition of the cytotoxicity of Hsp70-activated lymphocytes by the TREM-1 inhibitor peptide LP17 (…), against LP17 concentration; not completely suppressed at higher concentration: 0.01 nM
[2]
  cytotoxic activity of NK cells isolated on days four and six from PBMCs incubated with Hsp70 with or without the TREM-1 inhibitor LP17 (no difference on day six): 40%
